{"source": "IntAct's records for PubMed 15328353", "parents": {"B1": {"name": "Plasma serine protease inhibitor (Mus musculus), P70458 (parent)", "chain": "MRFFPILCLVLFISHGVASRRHSHSKKKKAKESSVGAVGPPSSKDFAFRLYRALVSESPGQNVFFSPLSVSMSLGMLSLGAGLKTKTQILDGLGLSLQQGQEDKLHKGFQQLLQRFRQPSDGLQLSLGSALFKDPAVHIRDDFLSAMKTLYMSDTFSTNFGNPEIAKKQINNYVAKQTKGKIVDFIKDLDSTHVMIVVNYIFFKAKWQTAFSETNTHKMDFHVTPKRTTQVPMMNREDGYSYYLDQNISCTVVGIPYQGNAIALFILPSEGKMKQVEDGLDERTLRNWLKMFTKRRLDLYLPKFSIEATYKLENVLPKLGIQDVFTTHADLSGITDHTNIKLSEMVHKSMMEVEESGTTAAAITGAIFTFRSARPSSLKIEFTRPFLLTLMEDSHILFVGKVTRP", "partner": "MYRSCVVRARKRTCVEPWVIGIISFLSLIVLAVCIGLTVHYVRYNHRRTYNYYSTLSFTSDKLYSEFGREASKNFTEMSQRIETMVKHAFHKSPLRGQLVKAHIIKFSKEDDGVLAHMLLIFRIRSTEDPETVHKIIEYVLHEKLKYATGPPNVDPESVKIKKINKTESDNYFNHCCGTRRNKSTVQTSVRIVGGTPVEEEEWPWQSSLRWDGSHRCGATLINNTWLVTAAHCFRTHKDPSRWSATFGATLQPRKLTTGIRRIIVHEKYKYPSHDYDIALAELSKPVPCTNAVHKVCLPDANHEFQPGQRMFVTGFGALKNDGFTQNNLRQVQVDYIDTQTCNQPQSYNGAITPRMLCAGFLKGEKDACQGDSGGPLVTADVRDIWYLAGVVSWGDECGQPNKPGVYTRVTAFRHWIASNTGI"}, "B2": {"name": "Plasminogen activator inhibitor 1 (Mus musculus), P22777 (parent)", "chain": "MQMSSALACLILGLVLVSGKGFTLPLRESHTAHQATDFGVKVFQQVVQASKDRNVVFSPYGVSSVLAMLQMTTAGKTRRQIQDAMGFKVNEKGTAHALRQLSKELMGPWNKNEISTADAIFVQRDLELVQGFMPHFFKLFQTMVKQVDFSEVERARFIINDWVERHTKGMINDLLAKGAVDELTRLVLVNALYFSGQWKTPFLEASTHQRLFHKSDGSTVSVPMMAQSNKFNYTEFTTPDGLEYDVVELPYQRDTLSMFIAAPFEKDVHLSALTNILDAELIRQWKGNMTRLPRLLILPKFSLETEVDLRGPLEKLGMPDMFSATLADFTSLSDQEQLSVAQALQKVRIEVNESGTVASSSTAFVISARMAPTEMVIDRSFLFVVRHNPTETILFMGQVMEP", "partner": "B1 partner"}}, "data": [{"variants_of": "B1", "details": "with tm11e_mouse Tmprss11e", "values": [{"variant": "R374A", "effect of a mutation on the interaction": "decreasing interaction"}]}, {"variants_of": "B2", "details": "with tm11e_mouse Tmprss11e", "values": [{"variant": "T356R;A358R", "effect of a mutation on the interaction": "decreasing interaction"}, {"variant": "R369A", "effect of a mutation on the interaction": "decreasing interaction"}]}]}
